These results are taken from the supplement of paper PMC9112550, “Optimization of the antimicrobial peptide Bac7 by deep mutational scanning” (BMC Biology, 2022).
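Note: peptides expressed intracellularly from a pBAD plasmid library in pooled LB shake-flask culture, induced with 0.3% L-arabinose, DNA abundance read by NGS, three biological replicates, DESeq2 with apeglm shrinkage.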

The subject of the data set is Escherichia coli TOP10. In words: shrunken log2 fold change of peptide-encoding DNA abundance (4.5 h post-induction vs induction); higher = less antimicrobial activity (less host growth inhibition). Conditions: time post-induction: 4.5 h; library: site-saturation at positions 5, 18, 19, 20.
For RRIRWRPPRLPRPRPRPIPNPRP, the “shrunken log2 fold change” value is -0.262. On to RRIRKRPPRLPRPRPRPCQTPRP, for which the “shrunken log2 fold change” value amounted to 0.233. Turning to RRIRNRPPRLPRPRPRPRPLPRP, the “shrunken log2 fold change” value is 0.402. Consider RRIRCRPPRLPRPRPRPVTCPRP, for which the “shrunken log2 fold change” value was -0.121. As for RRIRRRPPRLPRPRPRPQVNPRP, the figure is -0.0663; as for RRIRKRPPRLPRPRPRPQFRPRP, 0.0319.

Take RRIRRRPPRLPRPRPRPMPDPRP: the “shrunken log2 fold change” value is 0.442. For the sequence RRIRGRPPRLPRPRPRPWFRPRP, the “shrunken log2 fold change” value is -0.0346. RRIRCRPPRLPRPRPRPAPTPRP: the “shrunken log2 fold change” value came to 0.591.

With RRIRDRPPRLPRPRPRPKYSPRP, the “shrunken log2 fold change” value was -0.0792. In the case of RRIRQRPPRLPRPRPRPESNPRP, the “shrunken log2 fold change” value was -0.257.

On to RRIRGRPPRLPRPRPRPMRSPRP, for which the “shrunken log2 fold change” value came out at 0.64.

For RRIRPRPPRLPRPRPRPCCNPRP, the “shrunken log2 fold change” value is -0.301. Turning to RRIRERPPRLPRPRPRPPEVPRP, the “shrunken log2 fold change” value was 0.452. For the sequence RRIRIRPPRLPRPRPRPGFIPRP, the “shrunken log2 fold change” value is -0.391.

On to RRIRSRPPRLPRPRPRPNERPRP, for which the “shrunken log2 fold change” value is -0.395.

On to RRIRTRPPRLPRPRPRPRAKPRP, for which the “shrunken log2 fold change” value was 0.346.

For the sequence RRIRPRPPRLPRPRPRPSKRPRP, the “shrunken log2 fold change” value is -0.00797. As for RRIRDRPPRLPRPRPRPHKGPRP, the “shrunken log2 fold change” value came out at 0.0993. For the sequence RRIRVRPPRLPRPRPRPWTCPRP, the “shrunken log2 fold change” value was -0.0943. As for RRIRIRPPRLPRPRPRPIDYPRP, the “shrunken log2 fold change” value was -1.06. Regarding RRIRARPPRLPRPRPRPTSYPRP, the “shrunken log2 fold change” value is -0.0752. RRIRVRPPRLPRPRPRPTRFPRP: the “shrunken log2 fold change” value was 0.0403.

Turning to RRIRGRPPRLPRPRPRPQLKPRP, the “shrunken log2 fold change” value came to 0.404. RRIRNRPPRLPRPRPRPSDKPRP: the “shrunken log2 fold change” value was -0.363. For the sequence RRIRYRPPRLPRPRPRPCERPRP, the “shrunken log2 fold change” value was 0.0112. On to RRIRKRPPRLPRPRPRPEMAPRP, for which the “shrunken log2 fold change” value was 1.73.

For RRIRDRPPRLPRPRPRPFYLPRP, the “shrunken log2 fold change” value is -0.085. As for RRIRMRPPRLPRPRPRPMIAPRP, the “shrunken log2 fold change” value turned out to be 0.0314.

With RRIRVRPPRLPRPRPRPEDKPRP, the “shrunken log2 fold change” value was -0.00975. RRIRFRPPRLPRPRPRPVTTPRP: the “shrunken log2 fold change” value amounted to 0.173.

For RRIRRRPPRLPRPRPRPWQDPRP, the “shrunken log2 fold change” value turned out to be 0.0293.

With RRIRWRPPRLPRPRPRPKMIPRP, the “shrunken log2 fold change” value is -0.22. On to RRIRWRPPRLPRPRPRPLLDPRP, for which the “shrunken log2 fold change” value was determined as 0.0164. On to RRIRTRPPRLPRPRPRPVVSPRP, for which the “shrunken log2 fold change” value was 0.075. With RRIRKRPPRLPRPRPRPLQAPRP, the “shrunken log2 fold change” value amounted to 1.34. Take RRIRFRPPRLPRPRPRPSHYPRP: the “shrunken log2 fold change” value is -0.762. Turning to RRIRFRPPRLPRPRPRPFARPRP, the “shrunken log2 fold change” value was -0.115. With RRIRMRPPRLPRPRPRPMSPPRP, the “shrunken log2 fold change” value is 0.00473. RRIRSRPPRLPRPRPRPEDCPRP: the “shrunken log2 fold change” value was 0.0867.

Take RRIRDRPPRLPRPRPRPMVMPRP: the “shrunken log2 fold change” value amounted to 0.133. RRIRARPPRLPRPRPRPFPKPRP: the “shrunken log2 fold change” value was found to be 0.178. For RRIRGRPPRLPRPRPRPDVGPRP, the “shrunken log2 fold change” value stood at 0.434. RRIRQRPPRLPRPRPRPYANPRP: the “shrunken log2 fold change” value was -0.264. As for RRIRYRPPRLPRPRPRPCGSPRP, the “shrunken log2 fold change” value worked out at 0.00387. As for RRIRLRPPRLPRPRPRPAFNPRP, the figure is -0.189; as for RRIRQRPPRLPRPRPRPWFQPRP, -0.0867. Take RRIRARPPRLPRPRPRPGKEPRP: the “shrunken log2 fold change” value was 0.222. In the case of RRIRSRPPRLPRPRPRPSPNPRP, the “shrunken log2 fold change” value was 0.0503. For RRIRPRPPRLPRPRPRPCLSPRP, the “shrunken log2 fold change” value is -0.143. For the sequence RRIRPRPPRLPRPRPRPMMQPRP, the “shrunken log2 fold change” value is -0.369. Consider RRIRMRPPRLPRPRPRPDGLPRP, for which the “shrunken log2 fold change” value was determined as 0.143. For RRIRCRPPRLPRPRPRPCYDPRP the value was -0.316; for RRIRNRPPRLPRPRPRPSQAPRP, 0.0297; for RRIRYRPPRLPRPRPRPMFRPRP, -0.296.

RRIRLRPPRLPRPRPRPLSHPRP: the “shrunken log2 fold change” value was determined as 0.2. Take RRIRIRPPRLPRPRPRPAMPPRP: the “shrunken log2 fold change” value was found to be 0.0692.

Take RRIRSRPPRLPRPRPRPVRLPRP: the “shrunken log2 fold change” value is 0.196. For RRIRWRPPRLPRPRPRPRYWPRP the value was 0.185.

Regarding RRIRKRPPRLPRPRPRPLPRPRP, the “shrunken log2 fold change” value came to 1.08. For RRIRMRPPRLPRPRPRPRAYPRP the value was 0.426.

As for RRIRLRPPRLPRPRPRPDREPRP, the “shrunken log2 fold change” value turned out to be 0.0246.

With RRIRTRPPRLPRPRPRPLPFPRP, the “shrunken log2 fold change” value is -0.518. Consider RRIRIRPPRLPRPRPRPIAEPRP, for which the “shrunken log2 fold change” value was -0.22. Turning to RRIRRRPPRLPRPRPRPMQWPRP, the “shrunken log2 fold change” value came to 0.103. On to RRIRHRPPRLPRPRPRPVMTPRP, for which the “shrunken log2 fold change” value is -0.496. As for RRIRGRPPRLPRPRPRPHTSPRP, the figure is -0.00444; as for RRIRYRPPRLPRPRPRPICSPRP, 0.0329.

As to RRIRTRPPRLPRPRPRPMPSPRP, the “shrunken log2 fold change” value is -0.128. On to RRIRARPPRLPRPRPRPHGMPRP, for which the “shrunken log2 fold change” value worked out at 0.238. For RRIRYRPPRLPRPRPRPVTGPRP the value was -0.213; for RRIRPRPPRLPRPRPRPNSRPRP, -0.1.

Take RRIRARPPRLPRPRPRPFAGPRP: the “shrunken log2 fold change” value came out at 0.0859. As for RRIRIRPPRLPRPRPRPAFVPRP, the figure is -0.0212; as for RRIRFRPPRLPRPRPRPTEVPRP, -0.0247; as for RRIRERPPRLPRPRPRPDINPRP, -0.239. Take RRIRYRPPRLPRPRPRPNFTPRP: the “shrunken log2 fold change” value was -0.348. On to RRIRVRPPRLPRPRPRPDRVPRP, for which the “shrunken log2 fold change” value was -0.285.

Take RRIRDRPPRLPRPRPRPCMPPRP: the “shrunken log2 fold change” value is 0.0198. Consider RRIRMRPPRLPRPRPRPMCHPRP, for which the “shrunken log2 fold change” value came to 0.0525. As for RRIRCRPPRLPRPRPRPNGHPRP, the figure is -0.023; as for RRIRLRPPRLPRPRPRPWQHPRP, -0.319.

As for RRIRSRPPRLPRPRPRPTIVPRP, the “shrunken log2 fold change” value amounted to 0.148.

Turning to RRIRYRPPRLPRPRPRPRGMPRP, the “shrunken log2 fold change” value was -0.019. As for RRIRWRPPRLPRPRPRPKKNPRP, the figure is 0.341; as for RRIRERPPRLPRPRPRPNGYPRP, -0.193.

For RRIRTRPPRLPRPRPRPSEDPRP, the “shrunken log2 fold change” value was -0.494.

In the case of RRIRQRPPRLPRPRPRPHEQPRP, the “shrunken log2 fold change” value is 0.0505.

As to RRIRARPPRLPRPRPRPWFHPRP, the “shrunken log2 fold change” value is -0.301. For the sequence RRIRFRPPRLPRPRPRPAHNPRP, the “shrunken log2 fold change” value is -0.016. For RRIRLRPPRLPRPRPRPCPWPRP, the “shrunken log2 fold change” value was -0.129.
